# Measurements from patent publication US20070202051A1, “Aerosols for sinunasal drug delivery” (Pari GmbH, priority 2006, published 2007).
# How the values were obtained:
# [1] = Aerosol droplet size (mass median diameter, geometric standard deviation) by laser diffraction; format: physicochemical; details: aerosol generator of Example 5 (LC Sprint Junior-like + PARI SINUS); Example 9
# [2] = Physicochemical properties of the liquid test formulations
# [3] = at 25° C.; cited from earlier work
Compound,mass median diameter of the aerosol [1] [µm],dynamic viscosity of the solution [2] [mPa·s],osmolality of the solution [2] [mOsm/kg],pH of the solution [2],surface tension of the solution [2] [mN/m],aqueous solubility [3]
DNAse,3.19,0.98,285,6.5,72.1,
OC[C@H]1O[C@@H]2O[C@H]3[C@H](O)[C@@H](O)[C@@H](O[C@H]4[C@H](O)[C@@H](O)[C@@H](O[C@H]5[C@H](O)[C@@H](O)[C@@H](O[C@H]6[C@H](O)[C@@H](O)[C@@H](O[C@H]7[C@H](O)[C@@H](O)[C@@H](O[C@H]1[C@H](O)[C@H]2O)O[C@@H]7CO)O[C@@H]6CO)O[C@@H]5CO)O[C@@H]4CO)O[C@@H]3CO [α-cyclodextrin],,,,,,about 145 mg/mL
